B1: mutant III (Oenococcus oeni PSU-1; F133K) (protein)
chain: MNKLFLPKNFLWGGAVAANQLEGGWDQDNKGLSVADIMTAGANGKAREITDGIVKGKYYPNHEAIDFYHRYKEDIKLFAEMGFKCFRTSIAWTRIFPNGDEEQPNEAGLKFYDQLFDECHKYGIEPVITLSHKEMPYHLVKAYGGWRNRKLIDFFVRFAKTVFKRYKDKVSYWMTFNEIDNQTDYTNRFLMATNSGLILKNDQSDAESLMYQAAHYELVASALAVKLGHSINPNFQIGCMINMTPVYPASSKPADIFQAEKAMQRRYWFSDIHALGKYPENMEVFLKQNNFRPDITSEDRIVLKEGTVDYIGLSYYNSMTVQSKESNPGFHFIGPELTVDNPNVEKSDWGWPIDPLGLRYSLNWLADHYHKPLFIVENGLGAYDKVENSQQIHDPYRIAYLKAHIQAMIDAVQEDGVKVIGYTPWGCIDLVSAGTGQMSKRYGFIYVDKDDQGKGSLKRLKKDSFFWYQQVIQSNGSQLD
notes: purified recombinant, pMG36e plasmid, expressed in Lactococcus lactis MG1363
B2: mutant IV (Oenococcus oeni PSU-1; N181R) (protein)
chain: B1 chain with K133F, N181R
notes: as for B1
B3: wild-type enzyme (Oenococcus oeni PSU-1) (protein)
chain: B1 chain with K133F
notes: purified recombinant BGL0224 (MT330371.1), plasmid pMG36e-0224, expressed in Lactococcus lactis MG1363

Residue numbers refer to the chain shown, from its start. Names and notes keep the numbering of the source. Marks after values point to notes of the source that are not given here.

Substrate in the first data set: O=[N+]([O-])c1ccc(O[C@@H]2O[C@H](CO)[C@@H](O)[C@H](O)[C@H]2O)cc1
As to the kind of experiment: p-Nitrophenol release read at 420 nm after Na2CO3 stop, 0.1-25 mM substrate in 20 mM sodium phosphate buffer at each enzyme's optimum (wild type pH 5.0, 50 °C; mutant III pH 3.5, 50 °C; mutant IV pH 4.0, 45 °C), Hill function fit in Origin. In kind it is biochemical. The procedure:
(§1) 3.9. Enzymatic Reaction Kinetics and Substrate Specificity
(§2) The determination of enzymatic reaction kinetics was conducted according to Zhang et al., with slight modifications. Different concentrations (0.1 mM, 0.2 mM, 0.5 mM, 1.0 mM, 2.0 mM, 5.0 mM, 8.0 mM, 10 mM, 12 mM, 15 mM, 20 mM and 25 mM) of p-NPG substrate solutions were prepared with 20 mM sodium phosphate buffer. Then, 100 μg of enzyme lyophilized powder were added to 500 μL of p-NPG solutions at different concentrations. Next, this was reacted for 0 min, 5 min, 10 min, 15 min, 20 min, 25 min and 30 min under optimal reaction conditions, and at the end of each set of reactions, 500 μL 1 M of Na2CO3 solution were added to terminate the reaction. The absorbance value of each reaction system was measured at 420 nm and the amount of p-NP corresponding to different reaction times at specific substrate concentrations was calculated from the standard curve. The kinetic constants (Vmax and Km) of each reaction system were determined by fitting using the Hill function in the class of Growth/Inverse Curve for nonlinear fitting in the Origin Pro 8.0 software.
(§3) All experiments were set up in three parallels. The activities of the wild-type enzyme and five mutants were analyzed by ANOVA at the significance level of p < 0.05 using the SPSS 26.0 software, and multiple comparisons of the means were performed using Duncan’s method. The kinetic parameters of the enzymatic reactions for the wild-type enzyme and mutants catalyzing four substrates were subjected to independent sample t-tests at a significance level of p < 0.05, and the data were expressed as mean ± standard deviation. The experimental results were plotted using the Origin 2021 software.
For B1, the Km is 0.27 ± 0.05 ^b mM, the Vmax is 533 ± 6.51 µM/min/mg, the kcat amounted to 490 ± 5.98 s⁻¹ and the kcat/Km was 1.81e+06 M⁻¹ s⁻¹.

In the case of B2, the Km was 0.22 ± 0.03^a mM, the Vmax is 841.6 ± 3.82 µM/min/mg, the kcat worked out at 773.6 ± 3.52 s⁻¹ and the kcat/Km amounted to 3.52e+06 M⁻¹ s⁻¹.

In the case of B3, the Km is listed as 0.33 ± 0.03 ^c mM, the Vmax was 363 ± 4.13 µM/min/mg, the kcat is 334 ± 3.8 s⁻¹ and the kcat/Km came out at 1.01e+06 M⁻¹ s⁻¹.

Substrate in another data set: O=[N+]([O-])c1ccc(O[C@H]2O[C@H](CO)[C@@H](O)[C@H](O)[C@H]2O)cc1
Described as above. In kind it is biochemical. The procedure:
as §1, §2, §3
As for B1, the Km is on record as 1.19 ± 0.23 ^b mM, the Vmax is 25.8 ± 2.06 µM/min/mg, the catalytic constant (kcat) amounted to 23.7 ± 1.89 s⁻¹ and the kcat/Km is 19900 M⁻¹ s⁻¹.

Consider B2, for which the Km is given as 1.27 ± 0.19 ^c mM, the Vmax worked out at 19.9 ± 1.98 µM/min/mg, the kcat was 18.4 ± 1.82 s⁻¹ and the kcat/Km turned out to be 14400 M⁻¹ s⁻¹.

Take B3: the Km is listed as 1.07 ± 0.20 ^a mM, the Vmax is 29.6 ± 1.83 µM/min/mg, the kcat stood at 27.2 ± 1.68 s⁻¹ and the kcat/Km came out at 25400 M⁻¹ s⁻¹.

Substrate in a further data set: O=[N+]([O-])c1ccc(O[C@@H]2OC[C@@H](O)[C@H](O)[C@H]2O)cc1
The description is as above. In kind it is biochemical. Here is the method: as §1, §2, §3
For the protein B1, the Km is 1.24 ± 0.13 ^b mM, the Vmax is 337 ± 4.61 µM/min/mg, the kcat amounted to 310 ± 4.24 s⁻¹ and the kcat/Km was determined as 250000 M⁻¹ s⁻¹.

In the case of B2, the Km was 1.17 ± 0.16 ^a mM, the Vmax came out at 359 ± 3.88 µM/min/mg, the kcat turned out to be 330 ± 3.57 s⁻¹ and the kcat/Km worked out at 282000 M⁻¹ s⁻¹.

Consider B3, for which the Km is recorded as 1.31 ± 0.22 ^c mM, the Vmax came out at 308 ± 3.64 µM/min/mg, the kcat amounted to 283 ± 3.34 s⁻¹ and the specificity constant (kcat/Km) stood at 216000 M⁻¹ s⁻¹.

Substrate in another data set: O=[N+]([O-])c1ccc(O[C@@H]2O[C@H](CO)[C@H](O)[C@H](O)[C@H]2O)cc1
The description is as above. In kind it is biochemical. The procedure: as §1, §2, §3
B1: the Km is on record as 0.52 ± 0.17 ^a mM, the Vmax amounted to 349 ± 4.83 µM/min/mg, the kcat was 321 ± 4.44 s⁻¹ and the kcat/Km is 617000 M⁻¹ s⁻¹.

On to B2, for which the Km is listed as 0.87 ± 0.24 ^c mM, the Vmax was 257 ± 5.47 µM/min/mg, the kcat was 237 ± 5.03 s⁻¹ and the catalytic efficiency (kcat/Km) amounted to 272000 M⁻¹ s⁻¹.

Regarding B3, the Km is given as 0.81 ± 0.16 ^b mM, the Vmax worked out at 231 ± 5.71 µM/min/mg, the kcat was found to be 212 ± 5.25 s⁻¹ and the kcat/Km was 262000 M⁻¹ s⁻¹.

Values taken from PMC12072002, “Site-Directed Mutagenesis Increased the Catalytic Activity and Stability of Oenococcus oeni β-Glucosidase: Characterization of Enzymatic Properties and Exploration of Mechanisms” (International Journal of Molecular Sciences, 2025).
